± gives the uncertainty stated by the source.
B1: DnaJ homolog subfamily C member 5, residues 16 to 77; numbered along this chain, Q9H3Z4 (parent)
chain: LYHVLGLDKNATSDDIKKSYRKLALKYHPDKNPDNPEAADKFKEINNAHAILTDATKRNIYD

Variants of: B1
Assay: abundance fitness (aPCA) (normalised: wild type 0, dead -1); higher = more abundant; growth selection in yeast, the domain comes from the species named
Conditions: Homo sapiens

Question: Which abundance fitness does the source give for LYHVLGLDKNATSDDIKKSYRRLALKYHPDKNPDNPEAADKFKEINNAHAILTDATKRNIYD [K22R] here?
Answer: 0.041 ± 0.075

Question: Which abundance fitness does the source give for LYHVLGLDKNATSDDIKKSYRALALKYHPDKNPDNPEAADKFKEINNAHAILTDATKRNIYD [K22A] here?
Answer: 0.117 ± 0.072

Question: Which abundance fitness does the source give for LYHVLGLDKNATSDDIKKSYRGLALKYHPDKNPDNPEAADKFKEINNAHAILTDATKRNIYD [K22G] here?
Answer: 0.045 ± 0.078

Question: For LYHVLGLDKNATSDDIKKSYRFLALKYHPDKNPDNPEAADKFKEINNAHAILTDATKRNIYD [K22F], which abundance fitness is on record?
Answer: -0.16 ± 0.17

Question: Which abundance fitness does the source give for LYHVLGLDKNATSDDIKKSYRQLALKYHPDKNPDNPEAADKFKEINNAHAILTDATKRNIYD [K22Q] here?
Answer: 0.217 ± 0.11

Question: Which abundance fitness does the source give for LYHVLGLDKNATSDDIKKSYRPLALKYHPDKNPDNPEAADKFKEINNAHAILTDATKRNIYD [K22P] here?
Answer: -0.266 ± 0.12

Question: With LYHVLGLDKNATSDDIKKSYRHLALKYHPDKNPDNPEAADKFKEINNAHAILTDATKRNIYD [K22H] as the variant, how does the abundance fitness read?
Answer: 0.169 ± 0.24

Question: Which abundance fitness does the source give for LYHVLGLDKNATSDDIKKSYRVLALKYHPDKNPDNPEAADKFKEINNAHAILTDATKRNIYD [K22V] here?
Answer: 0.168 ± 0.086

Question: Which abundance fitness does the source give for LYHVLGLDKNATSDDIKKSYRYLALKYHPDKNPDNPEAADKFKEINNAHAILTDATKRNIYD [K22Y] here?
Answer: -0.246 ± 0.14

Question: For LYHVLGLDKNATSDDIKKSYRILALKYHPDKNPDNPEAADKFKEINNAHAILTDATKRNIYD [K22I], which abundance fitness is on record?
Answer: -0.179 ± 0.18

Question: For LYHVLGLDKNATSDDIKKSYRNLALKYHPDKNPDNPEAADKFKEINNAHAILTDATKRNIYD [K22N], which abundance fitness is on record?
Answer: -0.188 ± 0.32

Question: For LYHVLGLDKNATSDDIKKSYRELALKYHPDKNPDNPEAADKFKEINNAHAILTDATKRNIYD [K22E], which abundance fitness is on record?
Answer: 0.249 ± 0.11

Question: With LYHVLGLDKNATSDDIKKSYRCLALKYHPDKNPDNPEAADKFKEINNAHAILTDATKRNIYD [K22C] as the variant, how does the abundance fitness read?
Answer: -0.19 ± 0.13

Question: With LYHVLGLDKNATSDDIKKSYRLLALKYHPDKNPDNPEAADKFKEINNAHAILTDATKRNIYD [K22L] as the variant, how does the abundance fitness read?
Answer: 0.039 ± 0.082

Question: For LYHVLGLDKNATSDDIKKSYRSLALKYHPDKNPDNPEAADKFKEINNAHAILTDATKRNIYD [K22S], which abundance fitness is on record?
Answer: 0.166 ± 0.099

Question: With LYHVLGLDKNATSDDIKKSYRMLALKYHPDKNPDNPEAADKFKEINNAHAILTDATKRNIYD [K22M] as the variant, how does the abundance fitness read?
Answer: 0.32 ± 0.12

Question: For LYHVLGLDKNATSDDIKKSYRWLALKYHPDKNPDNPEAADKFKEINNAHAILTDATKRNIYD [K22W], which abundance fitness is on record?
Answer: -0.339 ± 0.094

Question: For LYHVLGLDKNATSDDIKKSYRKSALKYHPDKNPDNPEAADKFKEINNAHAILTDATKRNIYD [L23S], which abundance fitness is on record?
Answer: -0.423 ± 0.11

Question: With LYHVLGLDKNATSDDIKKSYRKHALKYHPDKNPDNPEAADKFKEINNAHAILTDATKRNIYD [L23H] as the variant, how does the abundance fitness read?
Answer: -1.2 ± 0.41

Question: For LYHVLGLDKNATSDDIKKSYRKMALKYHPDKNPDNPEAADKFKEINNAHAILTDATKRNIYD [L23M], which abundance fitness is on record?
Answer: -0.209 ± 0.12

Question: Which abundance fitness does the source give for LYHVLGLDKNATSDDIKKSYRKPALKYHPDKNPDNPEAADKFKEINNAHAILTDATKRNIYD [L23P] here?
Answer: -0.438 ± 0.14

Question: Which abundance fitness does the source give for LYHVLGLDKNATSDDIKKSYRKQALKYHPDKNPDNPEAADKFKEINNAHAILTDATKRNIYD [L23Q] here?
Answer: -0.334 ± 0.1

Question: With LYHVLGLDKNATSDDIKKSYRKVALKYHPDKNPDNPEAADKFKEINNAHAILTDATKRNIYD [L23V] as the variant, how does the abundance fitness read?
Answer: -0.525 ± 0.076

Question: Which abundance fitness does the source give for LYHVLGLDKNATSDDIKKSYRKWALKYHPDKNPDNPEAADKFKEINNAHAILTDATKRNIYD [L23W] here?
Answer: -0.423 ± 0.084

Question: Which abundance fitness does the source give for LYHVLGLDKNATSDDIKKSYRKYALKYHPDKNPDNPEAADKFKEINNAHAILTDATKRNIYD [L23Y] here?
Answer: -0.403 ± 0.17

Question: Which abundance fitness does the source give for LYHVLGLDKNATSDDIKKSYRKNALKYHPDKNPDNPEAADKFKEINNAHAILTDATKRNIYD [L23N] here?
Answer: -0.052 ± 0.21

Question: For LYHVLGLDKNATSDDIKKSYRKFALKYHPDKNPDNPEAADKFKEINNAHAILTDATKRNIYD [L23F], which abundance fitness is on record?
Answer: -0.536 ± 0.17

Question: For LYHVLGLDKNATSDDIKKSYRKIALKYHPDKNPDNPEAADKFKEINNAHAILTDATKRNIYD [L23I], which abundance fitness is on record?
Answer: -0.736 ± 0.47

Question: For LYHVLGLDKNATSDDIKKSYRKDALKYHPDKNPDNPEAADKFKEINNAHAILTDATKRNIYD [L23D], which abundance fitness is on record?
Answer: -0.129 ± 0.15

Question: Which abundance fitness does the source give for LYHVLGLDKNATSDDIKKSYRKGALKYHPDKNPDNPEAADKFKEINNAHAILTDATKRNIYD [L23G] here?
Answer: -0.308 ± 0.075

Question: For LYHVLGLDKNATSDDIKKSYRKKALKYHPDKNPDNPEAADKFKEINNAHAILTDATKRNIYD [L23K], which abundance fitness is on record?
Answer: -0.247 ± 0.11

Question: Which abundance fitness does the source give for LYHVLGLDKNATSDDIKKSYRKEALKYHPDKNPDNPEAADKFKEINNAHAILTDATKRNIYD [L23E] here?
Answer: -0.067 ± 0.12

Question: For LYHVLGLDKNATSDDIKKSYRKAALKYHPDKNPDNPEAADKFKEINNAHAILTDATKRNIYD [L23A], which abundance fitness is on record?
Answer: -0.454 ± 0.11

Question: Which abundance fitness does the source give for LYHVLGLDKNATSDDIKYSYRKLALKYHPDKNPDNPEAADKFKEINNAHAILTDATKRNIYD [K18Y] here?
Answer: -0.333 ± 0.19

Question: With LYHVLGLDKNATSDDIKKSYAKLALKYHPDKNPDNPEAADKFKEINNAHAILTDATKRNIYD [R21A] as the variant, how does the abundance fitness read?
Answer: 0.379 ± 0.48

Question: For LYHVLGLDKNATSDDIKKEYRKLALKYHPDKNPDNPEAADKFKEINNAHAILTDATKRNIYD [S19E], which abundance fitness is on record?
Answer: -0.091 ± 0.088

Question: With LYHVLGLDKNATSDDIKKWYRKLALKYHPDKNPDNPEAADKFKEINNAHAILTDATKRNIYD [S19W] as the variant, how does the abundance fitness read?
Answer: -0.813 ± 0.075

Question: With LYHVLGLDKNATSDDIKKKYRKLALKYHPDKNPDNPEAADKFKEINNAHAILTDATKRNIYD [S19K] as the variant, how does the abundance fitness read?
Answer: -0.391 ± 0.11

Question: With LYHVLGLDKNATSDDIKKHYRKLALKYHPDKNPDNPEAADKFKEINNAHAILTDATKRNIYD [S19H] as the variant, how does the abundance fitness read?
Answer: -0.333 ± 0.27

Question: With LYHVLGLDKNATSDDIKKVYRKLALKYHPDKNPDNPEAADKFKEINNAHAILTDATKRNIYD [S19V] as the variant, how does the abundance fitness read?
Answer: -0.187 ± 0.067

Question: For LYHVLGLDKNATSDDIKKFYRKLALKYHPDKNPDNPEAADKFKEINNAHAILTDATKRNIYD [S19F], which abundance fitness is on record?
Answer: -0.88 ± 0.16

Question: With LYHVLGLDKNATSDDIKKPYRKLALKYHPDKNPDNPEAADKFKEINNAHAILTDATKRNIYD [S19P] as the variant, how does the abundance fitness read?
Answer: -0.516 ± 0.052

Question: Which abundance fitness does the source give for LYHVLGLDKNATSDDIKKRYRKLALKYHPDKNPDNPEAADKFKEINNAHAILTDATKRNIYD [S19R] here?
Answer: -0.317 ± 0.051

From the Human Domainome abundance scans (Beltran et al. 2025)
